Laboratory results taken from publication PMC2693034.

Tests used:
[1] = target: IcmQ with a C-terminal 6xHis-tag (Legionella pneumophila); assay: […]
[2] = target: IcmQ with a C-terminal 6xHis-tag (Legionella pneumophila); assay: SEC
[3] = target: Qn(1-57), N-terminal domain of IcmQ (Legionella pneumophila); assay: SEC

| Substance | stoichiometry N [1] | stoichiometry N [2] | stoichiometry N [3] |
| --- | --- | --- | --- |
| IcmQ with a C-terminal 6xHis-tag (natural protein) | 2 | 2 |  |
| Qn(1-57), N-terminal domain of IcmQ (domain or fragment) |  |  | 2 |
